The record followed here is article PMC12018839.

This data set has as its target T1, GST-PIL15 (Oryza sativa (rice), UniProt Q0JNI9 1-637).
T1 sequence: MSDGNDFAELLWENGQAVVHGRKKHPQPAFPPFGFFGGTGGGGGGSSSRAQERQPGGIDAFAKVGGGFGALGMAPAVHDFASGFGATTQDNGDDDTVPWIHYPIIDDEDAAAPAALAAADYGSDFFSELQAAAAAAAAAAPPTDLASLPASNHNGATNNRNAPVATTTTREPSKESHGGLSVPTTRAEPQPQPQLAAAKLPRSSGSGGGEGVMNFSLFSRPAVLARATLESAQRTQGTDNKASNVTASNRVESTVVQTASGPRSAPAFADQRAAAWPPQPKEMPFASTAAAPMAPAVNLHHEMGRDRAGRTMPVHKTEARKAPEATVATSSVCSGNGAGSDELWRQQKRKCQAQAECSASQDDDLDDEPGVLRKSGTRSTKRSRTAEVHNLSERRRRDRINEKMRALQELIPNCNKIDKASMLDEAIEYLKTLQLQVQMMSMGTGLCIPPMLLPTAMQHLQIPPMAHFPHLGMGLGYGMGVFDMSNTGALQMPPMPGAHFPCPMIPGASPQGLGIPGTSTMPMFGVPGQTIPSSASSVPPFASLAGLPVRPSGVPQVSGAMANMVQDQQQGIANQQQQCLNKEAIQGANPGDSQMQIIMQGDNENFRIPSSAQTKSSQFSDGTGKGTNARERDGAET
The data set can be described thus: EMSA.

B1: PIL15 EMSA probe (AMT1;2 promoter PBE-box) (dsDNA)
DNA 1: AGGATTTCATGTGTTTTGGT
DNA 2: ACCAAAACACATGAAATCCT
Consider B1, for which the binding result is “binds”.
